Results as given in US20100081787A1 (FIBREX MEDICAL RESEARCH AND DEVELOPMENT, published 2010).
Numbered stars: 1 amine (or outer) side, 2 acyl side, 3 side chain; on linkers, the order of the positions; unused ones are H or OH. Square brackets hold non-standard residues; d marks the D form. Ends that are not written are not given here. ACHC(1S,2R) = O=C([C@H]1CCCC[C@H]1N[*:1])[*:2]

Target: T1, vascular endothelial (VE) cadherin (human, UniProt P33151 48-784)
T1 sequence (looked up): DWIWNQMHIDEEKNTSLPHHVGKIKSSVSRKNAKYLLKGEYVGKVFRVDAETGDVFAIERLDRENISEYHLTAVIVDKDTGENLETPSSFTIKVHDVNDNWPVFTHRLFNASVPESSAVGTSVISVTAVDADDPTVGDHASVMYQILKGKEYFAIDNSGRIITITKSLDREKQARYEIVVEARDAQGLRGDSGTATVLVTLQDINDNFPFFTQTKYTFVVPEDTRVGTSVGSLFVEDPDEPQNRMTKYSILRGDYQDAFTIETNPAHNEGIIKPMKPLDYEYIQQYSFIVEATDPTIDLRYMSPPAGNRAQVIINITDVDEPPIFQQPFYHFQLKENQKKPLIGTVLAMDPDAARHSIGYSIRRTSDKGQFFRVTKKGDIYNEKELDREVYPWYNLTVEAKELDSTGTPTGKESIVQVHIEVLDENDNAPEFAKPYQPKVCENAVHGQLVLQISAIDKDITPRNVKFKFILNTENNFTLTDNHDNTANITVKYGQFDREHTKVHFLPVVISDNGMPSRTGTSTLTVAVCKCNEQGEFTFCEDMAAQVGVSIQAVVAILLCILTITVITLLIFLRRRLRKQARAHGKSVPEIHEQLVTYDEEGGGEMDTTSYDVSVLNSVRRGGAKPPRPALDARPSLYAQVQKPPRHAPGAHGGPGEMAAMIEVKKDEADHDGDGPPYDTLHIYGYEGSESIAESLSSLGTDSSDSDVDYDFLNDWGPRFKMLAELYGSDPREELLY
Assay: cell-based or functional assay

GHRP[ACHC(1S,2R)]ISGG [Gly-His-Arg-Pro-(1S, 2R)Achc-Ile-Ser-Gly-Gly] was tested, and the “Relative RhoA stimulation compared to unstimulated control” value was 2.2 relative to unstimulated control.
